Reference: patent publication US20250027901A1
Several values for one entry are separate records, joined by “and”; a condition that tells them apart may be missing. Equal values may be shown once. Read-outs that look alike come from different tables or passages of the source.

Key:
[1] = molecular target: SARS-CoV-2 S1 (Sino Biological 40591-V08B1) (SARS-CoV-2) (UniProt P0DTC2)
[2] = molecular target: snoopTag-msfGFP-3C cleavage site-TwinStrep
lysozyme [3] = molecular target: lysozyme
[4] = molecular target: SARS-CoV-2 S1 (Sino Biological 40591-V08B1) (SARS-CoV-2) (UniProt P0DTC2); remark: listed apart in the source
[5] = molecular target: SARS-CoV-2 Spike-pseudotyped lentivirus (GeneCopoeia CAT. SP101-100) (SARS-CoV-2) (UniProt P0DTC2)
[6] = molecular target: Cysteine terminated spyTag peptide (…); test: QCMD, nanobody-SpyCatcher coupling to Cys-SpyTag peptide on gold (SpyDirect)
lysozyme [7] = test: OECT sensor, SpyDirect SARS-CoV-1 nanobody gates after 7-day storage, lysozyme
[8] = molecular target: SARS-CoV-2 S1 (Sino Biological 40591-V08B1) (SARS-CoV-2) (UniProt P0DTC2); test: OECT sensor, SpyDirect SARS-CoV-1 nanobody gate, 1.2 aM spike (FIG. 4C, saliva)

lysozyme, sequence (P00698 19-147): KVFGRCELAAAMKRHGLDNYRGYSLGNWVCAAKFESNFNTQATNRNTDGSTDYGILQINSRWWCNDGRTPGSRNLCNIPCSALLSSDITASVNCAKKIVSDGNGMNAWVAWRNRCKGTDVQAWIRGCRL

VHH72-8 aa-spyCatcher-3C cleavage site-His8
Density per cm^2 [1]: 5.2e+12 per cm^2 and 2.3e+12 per cm^2
gained mass (ng/cm^2) [1]: 290 ng/cm^2 and 659 ng/cm^2
gained mass (ng/cm^2) [2]: < 1 ng/cm^2
normalized response (NR) (lysozyme [3]): < 15%
normalized response (NR) [4]: 20%
normalized response (NR) [5]: 28%
Density per cm^2 [6]: 7.8e+12 per cm^2
gained mass (ng/cm^2) [6]: 376 ng/cm^2
normalized response (NR) (lysozyme [7]): < 12%
normalized response (NR) [8]: 20%
